We go through one molecule from patent US20250332265A1, “PSMA TARGETED CONJUGATE COMPOUNDS AND USES THEREOF” (priority 2021, published 2025).

For one series, the system named is PC3pip and PC3flu tumors. Put plainly: In vivo fluorescence imaging studies, heterotopic tumors. The arrangement: species or system mice. The procedure:
Animal experiments were approved by the animal care and use committee at Case Western Reserve University (IACUC #150033). Six to eight-week-old male Balb/c athymic nude mice (Jackson Laboratory, Bar Harbor, ME) were implanted subcutaneously with 1×10^6 of PC3pip (right flank) and PC3flu (left flank) cells in 100 μl of matrigel. Animals were ready to use when tumor diameter reached 10 mm, about two weeks. Animals received 100 nmol/kg of PSMA-1-MMAE-IR700 through tail vein injection and were imaged at different time points by Maestro In vivo Image System (Perkin Elmer, Waltham, MI) using the yellow filter set (excitation 575-605 nm, emission 645 nm longpass). During imaging, mice were anesthetized by isoflurane. At 48 h post injection, mice were sacrificed and tissues such as heart, lung, liver, kidneys, stomach, tumors were harvested for ex vivo imaging. Multispectral images were unmixed into their component spectra and average fluorescence signals were quantified by creating regions of interest. Experiments were performed in 5 mice.

Series [1] is described as follows: Stability in PBS, Example 2. Format: physicochemical. The following applies: incubated at 37° C. The source says: To synthesize PSMA-1-MMAE-IR700 (FIG. 6A), we used a self-immolative cathespsin cleavable Vc linker to conjugate MMAE to PSMA-1-Cys-C6-Lys. IR700 was conjugated to the PSMA-1 ligand through reaction of the Lys amine (—NH2) with NHS ester as no IR700 release is required for light activation. […] Degradation of PSMA-1-MMAE-IR700 led to release of free MMAE.

[2] abbreviates: 4 h post injection, 100 nmol/kg.
The mark [3] stands for this setting: 48 h post injection, 100 nmol/kg.

Each structure is given as a SMILES string.

Consider `CC[C@H](C)[C@@H]([C@@H](CC(=O)N1CCC[C@H]1[C@H](OC)[C@@H](C)C(=O)N[C@H](C)[C@@H](O)c1ccccc1)OC)N(C)C(=O)[C@@H](NC(=O)[C@H](C(C)C)N(C)C(=O)OCc1ccc(NC(=O)[C@H](CCCNC(N)=O)NC(=O)[C@@H](NC(=O)CCCCCN2C(=O)CC(SC[C@H](NC(=O)[C@H](CCC(=O)O)NC(=O)[C@H](CCC(=O)O)NC(=O)[C@H](CCC(=O)O)NC(=O)CCCCCNC(=O)[C@H]3CC[C@H](CNC(=O)CC[C@H](NC(=O)N[C@@H](CCC(=O)O)C(=O)O)C(=O)O)CC3)C(=O)NCCCCCC(=O)N[C@@H](CCCCNC(=O)CCCCCNC(=O)OCCCOc3cccc4c5n6c(c34)=NC3=NC(=Nc4c7ccccc7c(n4[Si]6(O[Si](C)(C)CCC[N+](CCCS(=O)(=O)[O-])(CCCS(=O)(=O)O)CCCS(=O)(=O)O)O[Si](C)(C)CCC[N+](CCCS(=O)(=O)[O-])(CCCS(=O)(=O)O)CCCS(=O)(=O)O)N=C4N=C(N=5)c5ccccc54)c4ccccc43)C(N)=O)C2=O)C(C)C)cc1)C(C)C` (stereo partly drawn) [PSMA-1-MMAE-IR700], for which, in the series on PC3pip and PC3flu tumors (100 nmol/kg i.v.), the “time to reach peak uptake in PC3pip tumors” value amounted to 1 h. In the series on PC3pip and PC3flu tumors (4 h post injection), the “fluorescence signal PC3pip versus PC3flu tumor” value is given as 3.8 fold. For the same molecule, in the series on PC3pip and PC3flu tumors (setting [2]), the “fluorescence signal in PC3flu tumor” value came to 5.2±1.5 counts and the “fluorescence signal in PC3pip tumor” value is on record as 19.6±4.4 counts. The “fluorescence signal PC3pip versus PC3flu tumor” value with PC3pip and PC3flu tumors (48 h post injection) was 2.9 fold. Further, in the series on PC3pip and PC3flu tumors (setting [3]), the “fluorescence signal in PC3flu tumors” value turned out to be 3.3±1.3 counts and the “fluorescence signal in PC3pip tumors” value stood at 9.6±2.1 counts. Also, the “fluorescent signal in PC3pip tumor versus kidneys, liver and other organs” value in the series on PC3pip and PC3flu tumors (ex vivo, 48 h post injection) is reported as “more than 3 fold”. In addition, in series [1], the “stability in PBS” value is “stable”.
